In patent US20250236682A1 (CENTENAIRE BIOSCIENCES, published 2025):
Positions count from the first letter of the chain named. In names and notes the source's numbering stands. Each block holds one binder with its values, some of them ahead of it.

Tests used:
[1] = target: T1, human HER2 recombinant protein (R&D systems, 1129-ER) (human, UniProt P04626 23-652); assay: BLI, HER2 on HIS1K sensor
T1 construct: extracellular domain; also called HER2 antigen; HER2 extracellular domain (ECD)

[2] = target: T2, human FcγRI (R&D systems, 1257-FC) (human, UniProt P12314 16-288); assay: BLI, His-FcγRI on HIS1K sensor
T2 construct: bought; also called FcγRI(CD64); Fcγ receptor 1

[3] = target: T3, human FcγRIIIA (176V isoform, R&D systems, 4325-FC) (human, UniProt P08637 17-208); assay: BLI, His-FcγRIIIA on HIS1K sensor
T3 construct: bought; also called FcγRIIIA(CD16A, 176V); Fcγ receptor 3A (176V isoform)

[4] = target: T1, human HER2 recombinant protein (R&D …); assay: BLI, HER2 on HIS1K sensor, 1 to 32 nM antibody
[5] = target: T4, neonatal Fc receptor (FcRn) (Homo sapiens (Human), UniProt P55899 24-297; P61769 21-119); assay: BLI, antibody on FAB2G sensor, FcRn analyte, pH 6.0
T4 construct: analyte in solution at pH 6.0; copies: 1 + 1

T2 sequence (P12314 16-288 limits assumed): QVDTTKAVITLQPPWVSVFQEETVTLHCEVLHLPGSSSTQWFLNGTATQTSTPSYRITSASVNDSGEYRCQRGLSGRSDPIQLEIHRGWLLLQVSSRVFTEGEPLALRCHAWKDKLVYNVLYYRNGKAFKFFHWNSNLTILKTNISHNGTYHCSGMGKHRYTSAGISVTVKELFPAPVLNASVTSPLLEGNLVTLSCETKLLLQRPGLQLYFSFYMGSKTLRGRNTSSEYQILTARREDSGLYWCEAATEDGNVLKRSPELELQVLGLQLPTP
T3 sequence (P08637 17-208 F176V limits assumed): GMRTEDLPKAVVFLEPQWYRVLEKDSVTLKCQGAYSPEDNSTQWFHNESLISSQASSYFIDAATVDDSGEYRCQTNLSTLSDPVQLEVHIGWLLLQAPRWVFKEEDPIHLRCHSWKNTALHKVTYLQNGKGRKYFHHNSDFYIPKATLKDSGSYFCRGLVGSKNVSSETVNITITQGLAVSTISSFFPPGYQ

B1: H01Fv1 (antibody, human IgG1)
heavy: not shown
light: not shown
chain: DKTHTCPPCPAPELLGGPSVFLFPPKPKDTLMISRTPEVTCVVVDVSHEDPEVKFNWYVDGVEVHNAKTKPREEQYNSTYRVVSVLTVLHQDWLNGKEYKCKVSNKALPAPIEKTISKAKGQPREPQVCTLPPSREEMTKNQVSLSCAVKGFYPSDIAVEWESNGQPENNYKTTPPVLDSDGSFFLVSKLTVDKSRWQQGNVFSCSVMHEALHNRFTQKSLSLSPGK
notes: also called Fv-(Fc)2, VH G44C / VL Q100C
Kd [1]: 0.244 nM | koff [1]: 5.11e-05 s⁻¹ | kon [1]: 210000 M⁻¹ s⁻¹

B3: H01Fv7 (antibody, human IgG1, kappa)
heavy: not shown
light: not shown
chain: B1 chain
notes: also called Fv-(Fc)2, VH G44C, Q105C, F126C / VL Q100C, A43C, S121C
Kd [1]: 0.279 nM | koff [1]: 7.7e-05 s⁻¹ | kon [1]: 276000 M⁻¹ s⁻¹

B4: P01DE4 (antibody, human IgG1, kappa)
heavy: not shown
light: not shown
chain: B1 chain with S19D, I112E, R215H, F216Y
notes: monovalent Fab-(Fc)2; also called P01 with S239D and I332E in all Fc chains
Kd [2]: 0.038 nM | koff [2]: 2.85e-05 s⁻¹ | kon [2]: 748000 M⁻¹ s⁻¹ | Kd [3]: 0.33 nM | koff [3]: 0.000159 s⁻¹ | kon [3]: 478000 M⁻¹ s⁻¹ | Kd [4]: 0.224 nM | koff [4]: 5.51e-05 s⁻¹ | kon [4]: 246000 M⁻¹ s⁻¹

B5: H01DE4 (antibody, human IgG1, kappa)
heavy: not shown
light: not shown
chain: B1 chain with S19D, I112E, R215H, F216Y
notes: monovalent Fab-(Fc)2; also called H01 with S239D and I332E in all Fc chains
Kd [2]: 0.036 nM | koff [2]: 3.06e-05 s⁻¹ | kon [2]: 852000 M⁻¹ s⁻¹ | Kd [3]: 0.1 nM | koff [3]: 5.51e-05 s⁻¹ | kon [3]: 526000 M⁻¹ s⁻¹ | Kd [4]: 0.145 nM | koff [4]: 3.73e-05 s⁻¹ | kon [4]: 258000 M⁻¹ s⁻¹

B8: H01Fv2 (antibody, human IgG1)
heavy: not shown
light: not shown
chain: B1 chain
notes: also called Fv-(Fc)2, VH Q105C / VL A43C
Kd [1]: 0.324 nM | koff [1]: 3.78e-05 s⁻¹ | kon [1]: 117000 M⁻¹ s⁻¹

Results, then the binder that gave them:

Kd [1]: 0.326 nM | koff [1]: 7.71e-05 s⁻¹ | kon [1]: 237000 M⁻¹ s⁻¹
B2: H01Fv4 (antibody, human IgG1)
heavy: not shown
light: not shown
chain: B1 chain
notes: also called Fv-(Fc)2, VH G44C, Q105C / VL Q100C, A43C

Kd [1]: 0.0487 nM | koff [1]: 6.61e-06 s⁻¹ | kon [1]: 136000 M⁻¹ s⁻¹
B6: H01Fv6 (antibody, human IgG1, kappa)
heavy: not shown
light: not shown
chain: B1 chain
notes: also called Fv-(Fc)2, VH Q105C, F126C / VL A43C, S121C

Kd [1]: 0.393 nM | koff [1]: 0.000107 s⁻¹ | kon [1]: 273000 M⁻¹ s⁻¹
B7: H01Fv5 (antibody, human IgG1, kappa)
heavy: not shown
light: not shown
chain: B1 chain
notes: also called Fv-(Fc)2, VH G44C, F122C / VL Q100C, S121C

Kd [5]: 322 nM | koff [5]: 0.0154 s⁻¹ | kon [5]: 47900 M⁻¹ s⁻¹
B9: pertuzumab (antibody, V domains shown)
VH: EVQLVESGGGLVQPGGSLRLSCAASGFTFTDYTMDWVRQAPGKGLEWVADVNPNSGGSIYNQRFKGRFTLSVDRSKNTLYLQMNSLRAEDTAVYYCARNLGPSFYFDYWGQGTLVTVSS
VL: DIQMTQSPSSLSASVGDRVTITCKASQDVSIGVAWYQQKPGKAPKLLIYSASYRYTGVPSRFSGSGSGTDFTLTISSLQPEDFATYYCQQYYIYPYTFGQGTKVEIK
